B1: Arabidopsis thaliana delta-1-pyrroline-5-carboxylate synthase 2 (AtP5CS2), wild type (enzyme, UniProt P54888 1-726, looked up)
chain: MTEIDRSRAFAKDVKRIVVKVGTAVVTGKGGRLALGRLGAICEQLAELNSDGFEVILVSSGAVGLGRQRLRYRQLVNSSFADLQKPQMELDGKACAGVGQSSLMAYYETMFDQLDVTVAQMLVTDSSFRDKDFRKQLSETVKAMLRMRVIPVFNENDAISTRRAPYKDSTGIFWDNDSLAALLSLELKADLLILLSDVEGLYTGPPSDSTSKLIHTFIKEKHQDEITFGEKSKLGRGGMTAKVKAAVNAAYGGVPVIITSGYAAENISKVLRGLRVGTLFHQDAHLWAPVVDTTSRDMAVAARESSRKLQALSSEDRKQILHDIANALEVNEKTIKAENDLDVAAAQEAGYEESLVARLVMKPGKISSLAASVRQLAEMEDPIGRVLKKTQVADDLILEKTSSPIGVLLIVFESRPDALVQIASLAIRSGNGLLLKGGKEARRSNAILHKVITDAIPETVGGKLIGLVTSREEIPDLLKLDDVIDLVIPRGSNKLVSQIKNSTKIPVLGHADGICHVYVDKSGKLDMAKRIVSDAKLDYPAACNAMETLLVHKDLEQNGFLDDLIYVLQTKGVTLYGGPRASAKLNIPETKSFHHEYSSKACTVEIVEDVYGAIDHIHQHGSAHTDCIVTEDSEVAEIFLRQVDSAAVFHNASTRFSDGFRFGLGAEVGISTSRIHARGPVGVEGLLTTRWIMRGKGQVVDGDNGIVYTHKDLPVLQRTEAVENGI
notes: Delta-1-pyrroline-5-carboxylate synthase 2 (P5CS2) of Arabidopsis thaliana; In the filament the helical unit is a tetramer (GK tetramer core, two GPR dimers); Only the GK tetramer was modelled at high resolution; also called AtP5CS2-WT; WT AtP5CS2; source: E. coli Rosetta (DE3), purified (Ni-NTA, SUMO-tag removed with yeast ULP1, Superose 6 Increase SEC); not shown: His6, N-terminal, cleaved; …
B2: Arabidopsis thaliana delta-1-pyrroline-5-carboxylate synthase 1 (AtP5CS1) (enzyme, UniProt P54887 1-717, looked up)
chain: MEELDRSRAFARDVKRIVVKVGTAVVTGKGGRLALGRLGALCEQLAELNSDGFEVILVSSGAVGLGRQRLRYRQLVNSSFADLQKPQTELDGKACAGVGQSSLMAYYETMFDQLDVTAAQLLVNDSSFRDKDFRKQLNETVKSMLDLRVIPIFNENDAISTRRAPYQDSSGIFWDNDSLAALLALELKADLLILLSDVEGLYTGPPSDPNSKLIHTFVKEKHQDEITFGDKSRLGRGGMTAKVKAAVNAAYAGIPVIITSGYSAENIDKVLRGLRVGTLFHQDARLWAPITDSNARDMAVAARESSRKLQALSSEDRKKILLDIADALEANVTTIKAENELDVASAQEAGLEESMVARLVMTPGKISSLAASVRKLADMEDPIGRVLKKTEVADGLVLEKTSSPLGVLLIVFESRPDALVQIASLAIRSGNGLLLKGGKEARRSNAILHKVITDAIPETVGGKLIGLVTSREEIPDLLKLDDVIDLVIPRGSNKLVTQIKNTTKIPVLGHADGICHVYVDKACDTDMAKRIVSDAKLDYPAACNAMETLLVHKDLEQNAVLNELIFALQSNGVTLYGGPRASKILNIPEARSFNHEYCAKACTVEVVEDVYGAIDHIHRHGSAHTDCIVTEDHEVAELFLRQVDSAAVFHNASTRFSDGFRFGLGAEVGVSTGRIHARGPVGVEGLLTTRWIMRGKGQVVDGDNGIVYTHQDIPIQA
notes: Delta-1-pyrroline-5-carboxylate synthase 1 (P5CS1) of Arabidopsis thaliana; also called His6-AtP5CS1; not shown: His6, N-terminal, kept
B3: AtP5CS2-GK, truncated AtP5CS2 consisting of residues 1-290 (glutamate kinase domain) (domain or fragment, Arabidopsis thaliana, UniProt P54888 1-290, looked up)
chain: MTEIDRSRAFAKDVKRIVVKVGTAVVTGKGGRLALGRLGAICEQLAELNSDGFEVILVSSGAVGLGRQRLRYRQLVNSSFADLQKPQMELDGKACAGVGQSSLMAYYETMFDQLDVTVAQMLVTDSSFRDKDFRKQLSETVKAMLRMRVIPVFNENDAISTRRAPYKDSTGIFWDNDSLAALLSLELKADLLILLSDVEGLYTGPPSDSTSKLIHTFIKEKHQDEITFGEKSKLGRGGMTAKVKAAVNAAYGGVPVIITSGYAAENISKVLRGLRVGTLFHQDAHLWAPV
notes: Delta-1-pyrroline-5-carboxylate synthase 2 (P5CS2) of Arabidopsis thaliana, residues 1-290, the glutamate kinase (GK) domain; probably made as His6-SUMO fusion in E. coli and cleaved with ULP1 like the full-length AtP5CS2 (surmised); also called AtP5CS2 GK domain

Assays:
[1] = target: the molecule itself; experiment: cryo-EM structure; mixed state: about 5 μM purified protein in reaction buffer with all substrates (25 mM Tris-HCl pH 8.0, 150 mM NaCl, 20 mM glutamate, 10 mM MgCl2, 5 mM ATP, 0.5 mM NADPH), on ice about 30 min (AtP5CS1) or 60 min (AtP5CS2); filament of tetrameric helical units, focus refinement on the GK tetramer
[2] = target: the molecule itself; experiment: negative-staining EM; purified protein about 2-4 μM incubated at 25 °C with substrates (ATP, glutamate, both, or all substrates = mixed state) at the concentrations of the activity assay; step seen: oligomers (tetramers) into filaments

Row | Protein | stoichiometry N [1] | binding result [2]
1 | B1 | 4 | 
2 | B2 | 4 | 
3 | B3 |  | binds
